Target: anti-GASP-1 polyclonal antibody raised against a GASP-1 fragment consisting of … (SEQ ID NO: 2)
Assay: competitive ELISA: free peptide against plate-bound BSA-GASP-1 conjugate for the biotinylated antibody

difference in OD values between zero and 0.3 ng/ml competing peptide: 1.1 OD (450 nm)
Binder: EEASPEAVAGVGFESK [GASP-1 peptide … (SEQ ID NO: 2)]
